Laboratory results from the RNAGym collection of RNA variant scans (doi:10.1073/pnas.2313332121).

B1: TPR t1 (parent)
chain: GACCAAUCUGCCCUCAGAGCUCGAGAACAUCUUCGGAUGCAGAGGAGGCAGGCUUCGGUGGCGCGAUAGCGCCAACGUCCUCAACCUCCAAUGCAUCCCACCACAUGAUGAUGCCUGAAGAGCCUUGGUUUUUUG

Variants of: B1
Experiment: polymerase ribozyme fitness, log enrichment relative to wild type (log ratio); higher = more active; in vitro selection for triplet polymerase activity
Procedure, shortened: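 Fitness compares each genotype's enrichment to that of the wild type on a logarithmic scale, averaging replicates with inverse-variance weights. The logarithm is base 2. Enrichment came from Illumina sequencing of input and output libraries after one triplicate round of in vitro selection, which included frozen incubation at −7 °C, of PCR-built, transcribed mutant libraries of each subunit of a heterodimeric triplet polymerase ribozyme. Only genotypes with ≥10 input reads and ≥1 read per output were kept.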

| Variant | polymerase ribozyme fitness (log ratio) |
| --- | --- |
| A66U C72G A95C G110U | -6.57 |
| A66G A83C C89U A95C | -2.97 |
| G69A U112C | -0.685 |
| G69A U112A | -2.26 |
| G65U G69U G113A U130G | -4.13 |
| A68G C94G G122A | -5.12 |
| A68U C102A | -6.73 |
| A68G A83C U96G U106A A121C | -1.7 |
| A66C A95G | -1.6 |
| G65A U106G | -6.66 |
| A68G C85A | -4.94 |
| A66G C72G A95U G117U U132C | -6.16 |
| G65U C73U | -5.34 |
| U67A C73U C94A C104U G117U | -6.08 |
| A66C C72U C80U U126G G128A | -4.37 |
| A66U C115U | -3.52 |
| A68U C79A C104A A111U | -8.01 |
| G65A U112A | -2.74 |
| A66G C76A | -1.89 |
| A66G C76G | -1.2 |
| A68G U131A | -3.5 |
| A66G G77U C89A | -4.38 |
| A66C C72G C115A | -1.65 |
| A66U C88U | -0.564 |

| Variant | polymerase ribozyme fitness (log ratio) |
| --- | --- |
| A66C A75G | -1.09 |
| A68G C102A | -6.51 |
| A68C A105C U112G | -6.56 |
| A68G C72G A83U C86A C104U U112G U116C A119C | -6.61 |
| U67C G93U | -5.03 |
| A68G C73G U129C | -5.86 |
| A68G U87C A111C G135U | -6.03 |
| A66C C86U C114G U129G | -4.68 |
| A68G G110U | -3.66 |
| A68G G110C | -5.66 |
| A66U U130A | -1.42 |
| A68U G93U C101A G113U G117A | -6.33 |
| G69A G122A | -2.53 |
| A66C C94A C114G G120C | -5.33 |
| A66U C76G U78A U106A | -0.894 |
| A66C C85G U130A | -3.4 |
| G69A C79A A111G | -5.28 |
| G69A G113A A121U | -1.68 |
| A68C C115G C124U | -6.57 |
| G65U C72A | -5.48 |
| G69A A111G | -2.61 |
| A68U G69A | -6.04 |
| A66C U96C | -2.57 |
| G69A C80U | -2.58 |

| Variant | polymerase ribozyme fitness (log ratio) |
| --- | --- |
| G69A C104U | -2.37 |
| A66G G71A A83C C88U U106A U130G | -3.75 |
| A66U A83G C86U | -2.39 |
| G69A C102A | -6.02 |
| G69A U78A | -2.94 |
| G69A U78G | -2.63 |
| G69A U78C | -2.5 |
| A68G U87G | -3.29 |
| A66C A111G G117U | -7.39 |
| G69A U87C | -2.12 |
| G69A U87G | -2.08 |
| A66U A90G A91G A103G G107C A121G | -5.84 |
| A68G A74G C79A | -4.8 |
| G69A C86U A111C | -3.32 |
| A66G G122A U129C | -2.27 |
| A66U C124G | 0.671 |
| A66U C124U | 0.294 |
| G69A C89A | -4.54 |
| G69A C89U | -2.85 |
| G69A G107C U112A | -6.47 |
| A68G G113C | -4.28 |
| A68U C123U | -5.66 |
| G65A G110A | -5.47 |
| A68U C124A | -4.62 |

| Variant | polymerase ribozyme fitness (log ratio) |
| --- | --- |
| A68U C124G | -4.93 |
| G69A C114A A121G U130G | -4.38 |
| A68G A100C | -4.96 |
| G69A C79U C80U | -6.55 |
| A66C C124U | 0.285 |
| G69A G110U | -3.36 |
| A68U G69C A121C | -3.61 |
| A66U C97U G120U C123U | -0.305 |
| A66G U78C U87G | -0.388 |
| A66C C70U G113A | -2.81 |
| A66U C73A C85G | -2.04 |
| A68G C73U C124U G135U | -3.48 |
| G69A C98A A121U | -6.1 |
| G65C C85U A108U C123G | -7.43 |
| G69A C88A | -1.98 |
| G69A C88U | -2.7 |
| A68C U78G U112A | -7.68 |
| G65U C123G | -4.68 |
| G69A C86U | -3.19 |
| U67G U92G C99G A121G | -7.6 |
| A68U C72U C82A G93C C115U G122A | -7.25 |
| A66G C79G U130C | -3.06 |
| A66U C79G | -4.01 |
| A66U C72G | -1.63 |

| Variant | polymerase ribozyme fitness (log ratio) |
| --- | --- |
| A66C C85U C86U C97U | -3.15 |
| A68G G71A | -4.15 |
| G65C C124A | -4.91 |
| G69A C72U A111C U131A | -3.01 |
| G69A U106A | -2.76 |
| G69A U106C | -3.42 |
| G69A U96G A121C | -1.72 |
| G69A A111U U130A | -6.09 |
| A66G U87A | -0.982 |
| A66G U131G | -2.21 |
| A66C U112A G128C | -4.27 |
| A66G C79G U81C C99G G113U G120C | -7.68 |
| A66C U78C | -1.36 |
| A68C C72U U78C C114G G120A C123U | -7.64 |
| A66G A100U G120C | -0.756 |
| G69A U109A | -5.09 |
| A66G G77A | -1.13 |
| A68G U78A C79U U106G | -6.12 |
| A66C G120U U132C | -0.962 |
| G69A C82U | -2.48 |
| U67G C88U A111G U116A | -7.24 |
| G69A U81G | -6.79 |
| G69A U81C | -2.71 |
| A68G U87G A118U U132A | -2 |

| Variant | polymerase ribozyme fitness (log ratio) |
| --- | --- |
| A66U A74G A118U | -0.793 |
| A66C G93A A121G | -0.199 |
| G69A G77A | -2.61 |
| G69A G77C | -4.57 |
| G69A C115A | -1.77 |
| G69A C115U | -2.83 |
| G69A A83U | -3.05 |
| A66C C89A G117U | -6.24 |
| A66C C85A | -3.06 |
| A66U G71A | -2.53 |
| A66U G77A A95C | -2.7 |
| G69A G93U | -4.03 |
| G69A G93A | -3.19 |
| A66C C88U G113U | -5.8 |
| A66C G69C C97G C101A G107A U112G U130G | -6.88 |
| G69A C76A C123U | -5 |
| G69A C72U | -1.06 |
| G69A G113C | -3.4 |
| G69A G113U | -5.37 |
| G69A G113A | -2.7 |
| A68G C94A | -5.05 |
| G69A U129A | -3.9 |
| A66G C124G G128A | -1.05 |
| U67G G69U G113U | -7.04 |

| Variant | polymerase ribozyme fitness (log ratio) |
| --- | --- |
| G65U C70U | -5.58 |
| G69A G117U | -5.17 |
| G69A G127A | -4.05 |
| U67C C114U | -6.64 |
| A68G A103C | -5.02 |
| A68U C82U A91G C101G C123U G128U | -5.8 |
| A66C C85G U106A | -2.61 |
| A66U U116G | -3.73 |
| A68G U96G | -3.68 |
| G69A C99U | -5.78 |
| G69A C99A | -7.72 |
| G69A G71U | -4.27 |
| A66U C85U | -2.22 |
| A66U C85G | -1.65 |
| G69A A91C U125A | -6.56 |
| A68U U78C | -6.34 |
| A66C U78C C101G C123A U132A | -3.72 |
| A68G U81A | -4.45 |
| A66G G71U C94A A111C | -4.73 |
| G69A C101U | -2.16 |
| G69A C101A | -3.72 |
| A68G C124U | -1.26 |
| G65A G117U | -6.21 |
